B1: FAM107A (parent)
chain: HRRGLGVDSKPELQRVLEHRRRNQ
B2: FCHO1 (parent)
chain: FTSSPSPFSSSSPENVEDSGLDSP

Variants of: B1
Experiment: protein stability index of a GFP-peptide fusion (GPS, HEK-293T) (PSI 1-6); higher = more stable
Details: c terminus: a fixed tail appended
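Further: lentivirally expressed fusions sorted by FACS into six bins by GFP to DsRed ratio, PSI derived from sequencing read proportions per bin multiplied by bin number.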

Variant	protein stability index
HRRGLGVDSKPELMRVLEHRRRNQ [Q14M]	2.81
HRRGLGVDSKPELPRVLEHRRRNQ [Q14P]	4
HRRGLGVDSKPELIRVLEHRRRNQ [Q14I]	2.75
HRRGLGVDSKPELYRVLEHRRRNQ [Q14Y]	3.15
HRRGLGVDSKPELSRVLEHRRRNQ [Q14S]	3.71
HRRGLGVDSKPELKRVLEHRRRNQ [Q14K]	3.39
HRRGLGVDSKPELGRVLEHRRRNQ [Q14G]	4.8
HRRGLGVDSKPELNRVLEHRRRNQ [Q14N]	4.5
HRRGLGVDSKPELHRVLEHRRRNQ [Q14H]	3.48
HRRGLGVDSKPELTRVLEHRRRNQ [Q14T]	4.28
HRRGLGVDSKPELVRVLEHRRRNQ [Q14V]	3.86
HRRGLGVDSKPELQAVLEHRRRNQ [R15A]	4.26
HRRGLGVDSKPELQWVLEHRRRNQ [R15W]	3.21
HRRGLGVDSKPELQSVLEHRRRNQ [R15S]	4.43
HRRGLGVDSKPELQEVLEHRRRNQ [R15E]	4.17
HRRGLGVDSKPELQGVLEHRRRNQ [R15G]	5.35
HRRGLGVDSKPELQFVLEHRRRNQ [R15F]	4.19
HRRGLGVDSKPELQNVLEHRRRNQ [R15N]	4.29
HRRGLGVDSKPELQDVLEHRRRNQ [R15D]	4.26
HRRGLGVDSKPELQHVLEHRRRNQ [R15H]	4.25
HRRGLGVDSKPELQPVLEHRRRNQ [R15P]	4.89
HRRGLGVDSKPELQQVLEHRRRNQ [R15Q]	3.56
HRRGLGVDSKPELQKVLEHRRRNQ [R15K]	3.31

Variant	protein stability index
HRRGLGVDSKPELQYVLEHRRRNQ [R15Y]	4.79
HRRGLGVDSKPELQTVLEHRRRNQ [R15T]	4.34
HRRGLGVDSKPELQMVLEHRRRNQ [R15M]	4.06
HRRGLGVDSKPELQRVLEHRRRFQ [N23F]	4.65
HRRGLGVDSKPELQRVLEHRRRQQ [N23Q]	3.14
HRRGLGVDSKPELQRVLEHRRRDQ [N23D]	3.85
HRRGLGVDSKPELQRVLEHRRRAQ [N23A]	2.99
HRRGLGVDSKPELQRVLEHRRRPQ [N23P]	3.03
HRRGLGVDSKPELQRVLEHRRRVQ [N23V]	3.33
HRRGLGVDSKPELQRVLEHRRRHQ [N23H]	2.74
HRRGLGVDSKPELQRVLEHRRRIQ [N23I]	2.32
HRRGLGVDSKPELQRVLEHRRRRQ [N23R]	3.26
HRRGLGVDSKPELQRVLEHRRRCQ [N23C]	2.37
HRRGLGVDSKPELQRVLEHRRRLQ [N23L]	2.35
HRRGLGVDSKPELQRVLEHRRREQ [N23E]	3.52
HRRGLGVDSKPELQRCLEHRRRNQ [V16C]	4.44
HRRGLGVDSKPELQRQLEHRRRNQ [V16Q]	5.45
HRRGLGVDSKPELQRLLEHRRRNQ [V16L]	4.03
HRRGLGVDSKPELQRDLEHRRRNQ [V16D]	4.25
HRRGLGVDSKPELQRYLEHRRRNQ [V16Y]	4.46
HRRGLGVDSKPELQRALEHRRRNQ [V16A]	4.83
HRRGLGVDSKPELQRFLEHRRRNQ [V16F]	4.23
HRRGLGVDSKPELQRGLEHRRRNQ [V16G]	5.55

Variant	protein stability index
HRRGLGVDSKPELQRILEHRRRNQ [V16I]	3.63
HRRGLGVDSKPELQRNLEHRRRNQ [V16N]	4.76
HRRGLGVDSKPELQRTLEHRRRNQ [V16T]	3.71
HRRGLGVDSKPELQRKLEHRRRNQ [V16K]	4.47
HRRGLGVDSKPELQRHLEHRRRNQ [V16H]	3.96
HRRGLGVDSKPELQRRLEHRRRNQ [V16R]	4.67
HRRGLGVDSKPELQRPLEHRRRNQ [V16P]	4.89
HRRGLGVDSKPELQRSLEHRRRNQ [V16S]	4.01
HRRGLGVDSKPELQRVLMHRRRNQ [E18M]	2.48
HRRGLGVDSKPELQRVLPHRRRNQ [E18P]	5.02
HRRGLGVDSKPELQRVLFHRRRNQ [E18F]	3.93
HRRGLGVDSKPELQRVLQHRRRNQ [E18Q]	2.67
HRRGLGVDSKPELQRVLLHRRRNQ [E18L]	3.98
HRRGLGVDSKPELQRVLRHRRRNQ [E18R]	4.12
HRRGLGVDSKPELQRVLGHRRRNQ [E18G]	3.58
HRRGLGVDSKPELQRVLYHRRRNQ [E18Y]	4.17
HRRGLGVDSKPELQRVLSHRRRNQ [E18S]	2.71
HRRGLGVDSKPELQRVLAHRRRNQ [E18A]	3.57
HRRGLGVDSKPELQRVLNHRRRNQ [E18N]	4.02
HRRGLGVDSKPELQRVLTHRRRNQ [E18T]	3.58
HRRGLGVDSKPELQRVLDHRRRNQ [E18D]	3.29
HRRGLGVDSKPELQRVLEDRRRNQ [H19D]	5.29
HRRGLGVDSKPELQRVLERRRRNQ [H19R]	4.54

Variant	protein stability index
HRRGLGVDSKPELQRVLEIRRRNQ [H19I]	4.04
HRRGLGVDSKPELQRVLELRRRNQ [H19L]	4.45
HRRGLGVDSKPELQRVLEKRRRNQ [H19K]	4.29
HRRGLGVDSKPELQRVLECRRRNQ [H19C]	2.01
HRRGLGVDSKPELQRVLEGRRRNQ [H19G]	4.68
HRRGLGVDSKPELQRVLEPRRRNQ [H19P]	4.29
HRRGLGVDSKPELQRVLENRRRNQ [H19N]	4.93
HRRGLGVDSKPELQRVLEQRRRNQ [H19Q]	3.67
HRRGLGVDSKPELQRVLESRRRNQ [H19S]	4.82
HRRGLGVDSKPELQRVLEWRRRNQ [H19W]	1.53
HRRGLGVDSKPELQRVLEMRRRNQ [H19M]	4.13
HRRGLGVDSKPELQRVLEYRRRNQ [H19Y]	3.72
HRRGLGVDSKPELQRVLEHRRRNV [Q24V]	3.24
HRRGLGVDSKPELQRVLEHRRRNP [Q24P]	2.74
HRRGLGVDSKPELQRVLEHRRRNH [Q24H]	3.64
HRRGLGVDSKPELQRVLEHRRRNS [Q24S]	3.57
HRRGLGVDSKPELQRVLEHRRRNM [Q24M]	2.88
HRRGLGVDSKPELQRVLEHRRRND [Q24D]	3.81
HRRGLGVDSKPELQRVLEHRRRNY [Q24Y]	2.79
HRRGLGVDSKPELQRVLEHRRRNN [Q24N]	4.19
HRRGLGVDSKPELQRVLEHRRRNE [Q24E]	4.59
HRRGLGVDSKPELQRVLEHRRRNL [Q24L]	2.49
HRRGLGVDSKPELQRVLEHRRRNC [Q24C]	3.59

Variant	protein stability index
HRRGLGVDSKPELQRVLEHRRRNA [Q24A]	3.88
HRRGLGVDSKPELQRVLEHRRRNW [Q24W]	2.73
HRRGLGVDSKPELQRVLEHRRRNT [Q24T]	3.78
HRRGLGVDSKPELQRVLEHRRRNI [Q24I]	2.4
HRRGLGVDSKPELQRVLEHRRRNK [Q24K]	4.39
HRRGLGVDSKPELQRVLEHRRTNQ [R22T]	3.76
HRRGLGVDSKPELQRVLEHRRCNQ [R22C]	3.6
HRRGLGVDSKPELQRVLEHRRDNQ [R22D]	4.62
HRRGLGVDSKPELQRVLEHRRKNQ [R22K]	4.46
HRRGLGVDSKPELQRVLEHRRSNQ [R22S]	4.79
HRRGLGVDSKPELQRVLEHRRLNQ [R22L]	3.4
HRRGLGVDSKPELQRVLEHRRPNQ [R22P]	4.36
HRRGLGVDSKPELQRVLEHRRHNQ [R22H]	3.55
HRRGLGVDSKPELQRVLEHRRGNQ [R22G]	3.64
HRRGLGVDSKPELQRVLEHRRYNQ [R22Y]	3.82
HRRGLGVDSKPELQRVLEHRRANQ [R22A]	4.63
HRRGLGVDSKPELQRVLEHRRFNQ [R22F]	3.43
HRRGLGVDSKPELQRVLEHRRWNQ [R22W]	2.46
HRRGLGVDSKPELQRVLEHRRQNQ [R22Q]	3.57
HRRGLGVDSKPELQRVLEHRRNNQ [R22N]	3.48
HRRGLGVDSKPELQRVAEHRRRNQ [L17A]	4.92
HRRGLGVDSKPELQRVEEHRRRNQ [L17E]	4.21
HRRGLGVDSKPELQRVYEHRRRNQ [L17Y]	4.56

Variant	protein stability index
HRRGLGVDSKPELQRVCEHRRRNQ [L17C]	5.08
HRRGLGVDSKPELQRVMEHRRRNQ [L17M]	4.14
HRRGLGVDSKPELQRVSEHRRRNQ [L17S]	4.79
HRRGLGVDSKPELQRVWEHRRRNQ [L17W]	3.71
HRRGLGVDSKPELQRVQEHRRRNQ [L17Q]	4.99
HRRGLGVDSKPELQRVKEHRRRNQ [L17K]	4.53
HRRGLGVDSKPELQRVPEHRRRNQ [L17P]	4.7
HRRGLGVDSKPELQRVGEHRRRNQ [L17G]	5.21
HRRGLGVDSKPELQRVNEHRRRNQ [L17N]	5.25
HRRGLGVDSKPELQRVHEHRRRNQ [L17H]	4.34
HRRGLGVDSKPELQRVDEHRRRNQ [L17D]	5.01
HRRGLGVDSKPELQRVIEHRRRNQ [L17I]	4.76
HRRGLGVDSKPELQRVVEHRRRNQ [L17V]	4.17
HRRGLGVDSKPELQRVLEHGRRNQ [R20G]	3.95
HRRGLGVDSKPELQRVLEHMRRNQ [R20M]	4.04
HRRGLGVDSKPELQRVLEHTRRNQ [R20T]	4.42
HRRGLGVDSKPELQRVLEHWRRNQ [R20W]	3.47
HRRGLGVDSKPELQRVLEHNRRNQ [R20N]	4.04
HRRGLGVDSKPELQRVLEHPRRNQ [R20P]	4.59
HRRGLGVDSKPELQRVLEHCRRNQ [R20C]	4.53
HRRGLGVDSKPELQRVLEHQRRNQ [R20Q]	3.96
HRRGLGVDSKPELQRVLEHFRRNQ [R20F]	2.69
HRRGLGVDSKPELQRVLEHLRRNQ [R20L]	3.31

Variant	protein stability index
HRRGLGVDSKPELQRVLEHDRRNQ [R20D]	3.98
HRRGLGVDSKPELQRVLEHIRRNQ [R20I]	3.78
HRRGLGVDSKPELQRVLEHKRRNQ [R20K]	4.79
HRRGLGVDSKPELQRVLEHARRNQ [R20A]	3.36
HRRGLGVDSKPELQRVLEHYRRNQ [R20Y]	3.41
HRRGLGVDSKPELQRVLEHERRNQ [R20E]	4.33
HRRGLGVDSKPELQRVLEHSRRNQ [R20S]	4.27
HRRGLGVDSKPELQRVLEHRYRNQ [R21Y]	3.98
HRRGLGVDSKPELQRVLEHRLRNQ [R21L]	3.77
HRRGLGVDSKPELQRVLEHRCRNQ [R21C]	3.39
HRRGLGVDSKPELQRVLEHRDRNQ [R21D]	4.11
HRRGLGVDSKPELQRVLEHRNRNQ [R21N]	4.74
HRRGLGVDSKPELQRVLEHRIRNQ [R21I]	3.86
HRRGLGVDSKPELQRVLEHRWRNQ [R21W]	3.64
HRRGLGVDSKPELQRVLEHRTRNQ [R21T]	3.48
HRRGLGVDSKPELQRVLEHRSRNQ [R21S]	3.37
HRRGLGVDSKPELQRVLEHRQRNQ [R21Q]	4.38
HRRGLGVDSKPELQRVLEHRERNQ [R21E]	5.04
HRRGLGVDSKPELQRVLEHRMRNQ [R21M]	4.09
HRRGLGVDSKPELQRVLEHRHRNQ [R21H]	4.38
HRRGLGVDSKPELQRVLEHRKRNQ [R21K]	4.15

Variants of: B2
Experiment: as above
Details: c terminus: a fixed tail appended

Variant	protein stability index
FFSSPSPFSSSSPENVEDSGLDSP [T2F]	4.58
FDSSPSPFSSSSPENVEDSGLDSP [T2D]	4.91
FESSPSPFSSSSPENVEDSGLDSP [T2E]	5.36
FISSPSPFSSSSPENVEDSGLDSP [T2I]	2.14
FHSSPSPFSSSSPENVEDSGLDSP [T2H]	2.02
FGSSPSPFSSSSPENVEDSGLDSP [T2G]	2.71
FKSSPSPFSSSSPENVEDSGLDSP [T2K]	5.53
FCSSPSPFSSSSPENVEDSGLDSP [T2C]	2.02
FASSPSPFSSSSPENVEDSGLDSP [T2A]	2.26
FLSSPSPFSSSSPENVEDSGLDSP [T2L]	3.48
ATSSPSPFSSSSPENVEDSGLDSP [F1A]	5.3
QTSSPSPFSSSSPENVEDSGLDSP [F1Q]	5.16
LTSSPSPFSSSSPENVEDSGLDSP [F1L]	5.78
STSSPSPFSSSSPENVEDSGLDSP [F1S]	5.49
KTSSPSPFSSSSPENVEDSGLDSP [F1K]	5.56
ETSSPSPFSSSSPENVEDSGLDSP [F1E]	5.62
RTSSPSPFSSSSPENVEDSGLDSP [F1R]	5.69
CTSSPSPFSSSSPENVEDSGLDSP [F1C]	5.43
TTSSPSPFSSSSPENVEDSGLDSP [F1T]	5.38
NTSSPSPFSSSSPENVEDSGLDSP [F1N]	5.29
MTSSPSPFSSSSPENVEDSGLDSP [F1M]	5.34
GTSSPSPFSSSSPENVEDSGLDSP [F1G]	5.46
PTSSPSPFSSSSPENVEDSGLDSP [F1P]	5.41
VTSSPSPFSSSSPENVEDSGLDSP [F1V]	5.51
DTSSPSPFSSSSPENVEDSGLDSP [F1D]	5.61
HTSSPSPFSSSSPENVEDSGLDSP [F1H]	4.74
YTSSPSPFSSSSPENVEDSGLDSP [F1Y]	1.88
ITSSPSPFSSSSPENVEDSGLDSP [F1I]	5.67
WTSSPSPFSSSSPENVEDSGLDSP [F1W]	5.16

— the supplement of paper PMC10567573
